According to patent publication EP4470554A1, “USE OF KALLIKREIN I OR DERIVATIVE THEREOF IN TREATMENT OF VCI, PSCI OR CSVD” (Zonhon Biopharma Institute, Inc., priority 2022, dated 2023):

Target: T1, LMWK (Homo sapiens, UniProt P01042)
T1 sequence (P01042 19-427 isoform P01042-2 limits assumed): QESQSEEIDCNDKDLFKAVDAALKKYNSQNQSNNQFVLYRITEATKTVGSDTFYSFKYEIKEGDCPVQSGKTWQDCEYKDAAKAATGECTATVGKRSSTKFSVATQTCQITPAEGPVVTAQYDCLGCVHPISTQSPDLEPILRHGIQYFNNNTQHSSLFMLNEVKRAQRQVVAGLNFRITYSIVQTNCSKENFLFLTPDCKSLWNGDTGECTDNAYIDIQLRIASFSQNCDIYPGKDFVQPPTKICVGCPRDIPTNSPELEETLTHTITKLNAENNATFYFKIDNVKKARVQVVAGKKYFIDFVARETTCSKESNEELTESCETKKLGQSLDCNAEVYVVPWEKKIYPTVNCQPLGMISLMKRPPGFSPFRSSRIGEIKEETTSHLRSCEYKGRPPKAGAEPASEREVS
Assay: In vitro activity evaluation based on natural substrates (enzymatic reaction with LMWK, bradykinin quantified by UPLC)
Type: biochemical
Conditions: 37°C, 15min
Method: This example compared the enzymatic reaction to produce the effector molecule bradykinin at different ratios of substrate (LMWK) to enzyme (KLK1 or its PEG modified KLK1). The produced effector molecules were separated by reverse phase chromatography, the peak area of the product is calculated, and the curve of bradykinin production with different ratios of substrate to enzyme was drawn. Compare the amount of effector molecules produced by different test samples under the same reaction methods. Through this in vitro method simulating the in vivo effect, the in vivo effects of different tested samples were indirectly compared.
Kb was KLK1 extracted from porcine pancreas. PEG-Kb was PEG10K-modified Kb. PEG10K-hKLK1X1 and PEG-Kb can be prepared according to the conventional method of polyethylene glycol modified drugs.
The samples were mixed according to the following table (in PEG modified samples, the molar mass of the modified active substance was converted). The mixed samples were placed in a 37°C thermostat, incubated for 15min, accurately timed, and the reaction was terminated by adding 50% acetic acid solution according to the volume ratio of 10:1.
After the termination of the reaction, the sample was placed in a desktop centrifuge, centrifuged at 12000rpm for 5min, and the supernatant was taken. Detect with Waters ACQUITY UPLC H-Class, the mobile phase A was 0.1% TFA-H2O, the mobile phase B was 0.1% TFA-ACN, the detection wavelength was 214nm, the column temperature was 30°C, the sample loading volume was 10µl, the flow rate was 0.2ml/min, the running time was 35min, and the running gradient was as follows: Table 3
According to the UPLC chromatograph results of the enzymatic reaction mixture, the chromatographic peak with retention time of 13±0.5min(the peak position of bradykinin) was integrated and summed, and compared with the peak area of per unit mass bradykinin (1mg/ml, loading volume 10µl) to calculate the concentration of bradykinin generated by the enzymatic reaction. The amount of bradykinin produced was calculated according to the total reaction system in Table 2, and finally converted to the amount of bradykinin(µg/mg) produced per milligram of enzyme at each molar ratio.

PEG-Kb: PEG10K-modified Kb [reference compound]
Bradykinin production (Molar ratio of substrate to enzyme 1: 1): 11.28 µg/mg (enzyme) | Bradykinin production (Molar ratio of substrate to enzyme 5: 1): 44.63 µg/mg (enzyme) | Bradykinin production (Molar ratio of substrate to enzyme 10: 1): 79.99 µg/mg (enzyme) | Bradykinin production (Molar ratio of substrate to enzyme 15: 1): 103.85 µg/mg (enzyme) | Bradykinin production (Molar ratio of substrate to enzyme 20: 1): 119.89 µg/mg (enzyme)
